Experimental data as given in patent US11939397B2, “ENTPD2 antibodies, combination therapies, and methods of using the antibodies and combination therapies” (Novartis AG, priority 2018, dated 2024).

Tests used:
cyno ENTPD2 = test: FACS binding to cyno ENTPD2 expressing cells; parameters: species or system cynomolgus monkey
Procedure: FACS screening: Specific binding of candidate antibodies to endogenously expressed ENTPD2 was assessed by flow cytometry. Cells were rinsed thoroughly with 1×PBS and treated with Accutase (Millipore #SCR005) to lift from growth plates and resuspended at approximately 1×10^5 cells/90 μL in 1×FACS buffer (2% FBS+0.1% NaN3 in PBS). In a 96-well U-bottom plate, 10 μL of 10× antibody solution in FACS buffer was pre-seeded and 90 μL of cell suspension was added. Cell were incubated for 30 minutes at 4° C., washed 1× with cold PBS and resuspended in 100 μL of 1:500 secondary antibody 1×FACS buffer (Allophycocyanin conjugated F(ab′)2 goat anti-human IgG, Fcγ specific; Jackson Immunoresearch, Cat #109-136-098). After additional incubation for 15 min at 4° C., cells were washed twice with PBS and resuspended in 100 μL of 1×FACS buffer with 4 μg/mL propidium iodide (Life Technologies, Cat #P3566). Geometric mean fluorescence intensity was calculated on live single cells using FlowJo software.

B16LM3 tumor = test: Syngeneic B16LM3 tumor model, survival; assay type: in vivo, C57BL/6 mice; details: mAb13 15 mg/kg in combination with anti-PD-1 Ab 10 mg/kg i.p., days 1, 5, 8, 12, 15; relative to No Treatment, Isotype Control or anti-PD-1 Ab
Procedure: B16LM3 model was established in female C57BL/6 mice by subcutaneous injection of 0.5×10^6 cells into the right flank of each mouse. The day after implant mice were randomized into treatment groups (n=10 per group). Mice received treatments of either anti-mouse ENTPD2 mAb13 or a non-specific mIgG2a isotype control (clone MOPC-173, BioLegend, San Diego, CA) at a final dose 15 mg/kg on Day 1, 5, 8, 12, 15.
Anti-PD-1 Ab (clone RMP1-14 Bio X Cell, West Lebanon, NH) or non-specific rIgG2a isotype control (clone RTK2758, BioLegend, San Diego, CA) were delivered i.p. at a final dose of 10 mg/kg on days 1, 5, 8, 12, 15. All doses were adjusted to individual mouse body weights.

cyno ENTPD2, sequence (as listed by the source): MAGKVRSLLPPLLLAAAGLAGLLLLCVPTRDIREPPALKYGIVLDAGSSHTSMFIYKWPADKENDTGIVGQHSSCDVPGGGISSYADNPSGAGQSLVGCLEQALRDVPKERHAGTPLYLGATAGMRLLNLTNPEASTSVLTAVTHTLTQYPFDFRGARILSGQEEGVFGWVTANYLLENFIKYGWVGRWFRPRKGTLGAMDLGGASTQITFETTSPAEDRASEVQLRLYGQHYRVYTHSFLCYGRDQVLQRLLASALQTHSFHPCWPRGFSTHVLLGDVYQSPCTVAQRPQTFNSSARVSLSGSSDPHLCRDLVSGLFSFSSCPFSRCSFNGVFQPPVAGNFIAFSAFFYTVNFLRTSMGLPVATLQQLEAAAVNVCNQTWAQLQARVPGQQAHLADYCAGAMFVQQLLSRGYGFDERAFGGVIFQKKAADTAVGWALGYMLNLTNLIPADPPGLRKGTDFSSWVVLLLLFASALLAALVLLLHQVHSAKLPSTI

B1: mAb13: anti-mouse ENTPD2 monoclonal antibody, VH SEQ ID NO: 191, VL SEQ ID NO: 202 (antibody, V domains shown)
VH: QVQLVQSGAELKQPGQSVKISCKASGYTFTHYGMNWVKQAPGQGLKWMGWINTDTGNPTYADDFKGRFVFSLDTSVSTAYLQISNLKNEDTATYYCVRYGTLYSGYGFFFDSWGQGTLVTVSS
VL: DIMMTQSPSSLSVSAGEKATITCKSSQSLFNSNTNKNYLNWYLQKPGQSPKLLFYYASTRHTGVPDRFIGSGSGTDFTLTITSVQDEDLADYYCQQWYSYPWTFGPGTKLEIK
- binding to cyno ENTPD2 (cyno ENTPD2): no binding
- mouse survival (B16LM3 tumor): significantly extended mouse survival
